Patent publication US9951359B2, “Heat-stable, FE-dependent alcohol dehydrogenase for aldehyde detoxification” (UT-BATTELLE, LLC, priority 2013, dated 2018)
Where two headings read alike, the source gives them in different places.

Tests used:
[1] = tested on: Thermoanaerobacter pseudethanolicus 39E (Teth39E); assay: Growth of Teth39E with furan aldehydes (optical density at 600 nm); type: cell-based; details: for specific growth rate: 65° C.; for IC50: Thermoanaerobacter pseudethanolicus, read-out: furan aldehyde concentration which resulted in 50% inhibition of growth (IC50)
Method: Teth39E (DSMZ 2355) was purchased from Deutsche Sammlung von Mikroorganismen and Zellkulturen GmbH (DSMZ). Anaerobic growth medium was prepared anaerobically by a modified Hungate technique and consisted of 4.5 mM KCl, 4.7 mM NH4Cl, 2.5 mM MgSO4.7H2O, 1.0 mM NaCl, 0.7 mM CaCl2.2H2O, […] resazurin, 2.8 mM cysteine-HCl, 6.0 mM NaHCO3, 1 mM potassium phosphate buffer (pH 6.8), 10 mM 3-(N-morpholino)-propanesulfonic acid (pH 6.8), 1× Wolfe's trace minerals, 1× Wolfe's vitamin supplement, 0.1% (w/v) yeast extract, and 40 mM glucose [Miller and Wolin (1974) Appl. Microbiol. 27:985-987; Wolin et al. (1963) J. Biol. Chem. 238:2882-2886]. Furan aldehydes were added from degassed concentrated stock solutions. Cultures were grown at 65° C. from a 1% inoculum in Balch tubes (10 mL) or 125 mL serum bottles (50 mL) Cell growth was monitored by optical density at 600 nm, either directly in the Balch tube using a Spectronic 200 spectrophotometer (Thermo Fisher Scientific, Waltham, Mass.) or as 200 μL samples transferred to a 96-well plate and read on a Synergy Mx plate reader (BioTek, Winooski, Vt.). All growth experiments were performed in triplicate.
Lower concentrations of furfural (10 and 20 mM) and 5-hydroxymethylfurfural (10 mM) stimulated growth of Teth39E, with increased cell yields after 12 h for both (see FIGS. 1A and 1B). […] The IC50 for 5-HMF was between 20 and 30 mM after both 12 and 24 h.

[2] = tested on: protein encoded by the Teth39_1597 locus (bdhA); assay: Proteome comparison of Teth39E grown in the presence or absence of furfural; type: cell-based, Thermoanaerobacter pseudethanolicus 39E; details: Teth39E grown in the presence of 15 mM furfural
Method: To identify the enzymes responsible for furfural and 5-HMF conversion, the proteomes were compared for strain Teth39E grown in the presence or absence of 15 mM furfural.

BdhA (Teth39_1597) [3] = assay: Aldehyde reductase enzyme assay with whole cell lysates of E. coli overexpressing BdhA (NAD(P)H oxidation at 340 nm); type: biochemical, Thermoanaerobacter pseudethanolicus 39E; details: for specific activity with NADPH as a cofactor / BdhA Aldehyde Activities (specific activity): whole cell lysate; for BdhA Aldehyde Activities (specific activity): 60° C.; for BdhA Aldehyde Activities (specific activity) / Specific activity: aerobic
Method: Teth39E genomic DNA was isolated using the Wizard Genomic DNA Purification kit (Promega, Madison, Wis.). The bdha gene was PCR amplified using Phusion polymerase (New England Biolabs, Ipswich, Mass.) and cloned into pET30a (EMD Millipore, Billerica, Mass.) behind 6× His- and S-tags. Expression plasmids were transformed in BL21 (DE3) E. coli according to the manufacturer's protocol (Invitrogen, Grand Island, N.Y.). Cells were grown in 50 mL 2×YT medium at 37° C. to OD600 of 0.8-1.0, then induced with 100 μM isopropyl-β-D-thiogalactopyranoside and switched to 30° C. for 16 h. Cells were harvested at 4° C. (3,000×g, 30 min), washed in 50 mL 100 mM sodium phosphate buffer, pH 7 (buffer A), and re-suspended in 5 mL buffer A. Enzyme assays were performed aerobically at 60° C. with whole cell lysates and specific activity was determined by measuring the change in absorbance at 340 nm due to oxidation of NADPH or NADH.
Cell suspension (450 μL) was added to 0.1 mm zirconia beads (300 μL) and vortexed 4×60 sec with 30 sec on ice in between. Samples were centrifuged (14,000×g, 2 min) and the resulting supernatant was used for enzyme assays.
For the enzyme assays, Buffer A (1 mL), 10 mM NAD(P)H (25 μL), and 400 mM aldehyde (50 μL) were added to a 2 mL quartz cuvette, sealed with a butyl stopper, and equilibrated to 60° C. Assays were read at 340 nm (DU 800) for 150 sec to establish a baseline slope before whole cell lysate was added (1-5 μL). Cuvettes were inverted once to mix and read an additional 450 sec. The decrease in absorbance over time was calculated and the baseline slope was subtracted. NAD(P)H concentration was determined using the extinction coefficient (NADH: 6220 M^−1 cm ^−1, NADPH: 6270 M^−1 cm^−1) and specific activity was calculated as the change in μmoles NAD(P)H/min/mg of whole cell lysate protein. Protein concentration was determined using the Bradford assay (Bio-Rad, Hercules, Calif.) with bovine serum albumin as a standard. Specific activity was measured for the pET30a vector (control) and overexpressed Teth39_1597 (BdhA) with acetaldehyde, butyraldehyde, isobutyraldhyde, furfural, and 5-HMF. Furfural was also assayed under anaerobic conditions. BdhA activity was compared to the vector-only control.

BdhA (Teth39_1597) [4] = assay: Optimal temperature and pH of purified BdhA enzyme (butyraldehyde, NADPH); type: biochemical, Thermoanaerobacter pseudethanolicus 39E
Method: The optimal temperature for BdhA activity was determined from purified enzyme as follows. A 1 liter culture of E. coli BL21 (DE3) harboring the pET30a-BdhA expression construct (see FIG. 6A) was grown to mid-log phase and induced with 0.4 mM IPTG and allowed to incubate for 16 h at 30° C. with shaking at 250 rpm. The induced cells were harvested via centrifugation at 5,000×g for 20 min at 4° C. and washed 3 times with 40 mL ice-cold phosphate buffered saline (PBS) at pH 7.2 and placed on ice. The cell pellet was resuspended in binding buffer (20 mM sodium phosphate, 500 mM NaCl, 20-40 mM imidazole, pH 7.4) containing 0.2 mg/mL lysozyme, 20 μg/mL DNAse, 1 mM MgCl2, 1 mM PMSF and stirred for 30 min at room temperature. The cells were then subjected to 5×2 min rounds of sonication (Branson Sonifier 450 with microtip, duty cycle at 30%) while kept in an ice water bath. The lysate was centrifuged at 7,500×g for 20 min at 4° C. and the supernatant was transferred to a new 50 mL conical tube. […] For determining the optimal temperature for BdhA, 1 mL assays containing 100 mM phosphate buffer (pH 7.5), 20 mM butyraldehyde, and 0.25 mM NADPH were monitored for loss of absorbance at 340 nm for 20 seconds at 30-90° C. in 5° C. intervals. […]
The optimum pH was also determined for BdhA by using butyraldehyde as the substrate and NADPH as the cofactor. […]

Molecule `O=Cc1ccco1` [furfural] has a specific growth rate ([1]; 10 mM furan aldehyde) of 0.52 ± 0.03 h⁻¹, a specific growth rate ([1]; 20 mM furan aldehyde) of 0.43 ± 0.03 h⁻¹ and an IC50 ([1]; after 12 h) of 30 mM. The IC50 ([1]; after 24 h) was 30 to 40 mM and the “expression of Teth39_1597 protein upregulated” value [2] was “approximately 7 fold”.

Work on `O=Cc1ccc(CO)o1` [5-HMF, 5-hydroxymethyl furfural] yielded a specific growth rate ([1]; 10 mM furan aldehyde) of 0.51 ± 0.03 h⁻¹, an IC50 ([1]; after 12 h) of 20 to 30 mM and an IC50 ([1]; after 24 h) of 20 to 30 mM.

B1: BdhA: heat-stable, NADPH- and iron-dependent alcohol dehydrogenase cloned from Thermoanaerobacter pseudethanolicus 39E (SEQ ID NO: 2) (protein, listed as Thermoanaerobacter pseudethanolicus)
chain: MMKFEFYNPTRLIFGAGSLGQLGKVVNQYGKKALLVIGGGSVKKSGAFDRAVASLKAAGVLVVEFSGVEPNPRLSTVVRASELAKKEACDVVIGMGGGSVMDASKVIAASVLYEGDPKDMLVRAGKAPRLPERALPIITVPTLAATGSEMNNGAVITIDDEGEKLKTFVQAEVLYPRVAVVDPELTMTVPKNHTAFGVCDIITHVTEGYFNGIDGTPLQDRFAEGVILTVLEWGPKAVSDGSDLEARTQVQWASIVALNGWVQVGTNGAYPVHMIEHTLSALYDIPHGAGLAVVNPAWMRFAARFRPERFAQFAQRIFGLTATGKDTLSLAMEGIDKFEEFLRSIGCPTRLSELGIGEITEEMLFRYAEETLKVLQDEEGRLPGRPSLRKEDIVEILRMAM
With B1 the “activity above the vector control using NADH as the cofactor” value (BdhA (Teth39_1597) [3]; NADH as cofactor) was “No activity was detected”, the “specific activity with NADPH as a cofactor” value (BdhA (Teth39_1597) [3]; butyraldehyde as substrate) was “at least 14 μmole/min/mg” and the activity against butyraldehyde (BdhA (Teth39_1597) [3]; butyraldehyde, NADPH) was “approximately 14.58±3.57 μmoles/min/mg”. The “specific activity with NADPH as a cofactor” value (BdhA (Teth39_1597) [3]; expressed in E. coli, various aldehydes) was “at least 0.5 μmole/min/mg”, the “BdhA Aldehyde Activities (specific activity)” value (from here on “BdhA Aldehyde Activities”) (BdhA (Teth39_1597) [3]; substrate 5-HMF, NADPH) was 10.06 ± 0.80 and the “BdhA Aldehyde Activities” value (BdhA (Teth39_1597) [3]; substrate acetaldehyde, NADPH) was 4.54 ± 0.76. For the same molecule, the “BdhA Aldehyde Activities” value (BdhA (Teth39_1597) [3]; substrate butyraldehyde, NADPH) was 14.58 ± 3.57, the “BdhA Aldehyde Activities” value (BdhA (Teth39_1597) [3]; substrate furfural, NADPH) was 4.97 ± 0.17 and the “BdhA Aldehyde Activities” value (BdhA (Teth39_1597) [3]; substrate isobutyraldehyde, NADPH) was 0.63 ± 0.29. For the same molecule, the Specific activity (BdhA (Teth39_1597) [3]; with 5-HMF, NADPH) was 10.06±0.80 U, the Specific activity (BdhA (Teth39_1597) [3]; with furfural, NADPH) was 4.97±0.17 U and the “optimal temperature for BdhA activity” value (BdhA (Teth39_1597) [4]; 20 mM butyraldehyde, 0.25 mM NADPH, pH 7.5, 30-90° C.) was 75 °C. For the same molecule, the “optimum pH (optimal relative activity)” value (BdhA (Teth39_1597) [4]; butyraldehyde, NADPH, buffers pH 4-10) was 8.0 pH units.
